± gives the uncertainty stated by the source.
B1: Integrator complex subunit 12, residues 155 to 213; numbered along this chain, Q96CB8 (parent)
chain: AMEMGLACVVCRQMMVASGNQLVECQECHNLYHRDCHKPQVTDKEANDPRLVWYCARCT
B2: RUN and FYVE domain-containing protein 1, residues 639 to 698; numbered along this chain, Q96T51 (parent)
chain: WLKDDEATHCRQCEKEFSISRRKHHCRNCGHIFCNTCSSNELALPSYPKPVRVCDSCHTL

Variants of: B1
Test: abundance fitness (aPCA) (normalised: wild type 0, dead -1); higher = more abundant; growth selection in yeast, the domain comes from the species named
Settings: Homo sapiens

Abundance fitness, by site and new letter:
R57: E -0.013 ± 0.043 | I -0.103 ± 0.086 | M -0.134 ± 0.046 | L -0.122 ± 0.042 | V -0.074 ± 0.038 | F -0.234 ± 0.095 | A -0.018 ± 0.039 | S -0.026 ± 0.043 | K -0.029 ± 0.047 | H -0.046 ± 0.081 | G 0.051 ± 0.035 | C -0.075 ± 0.068 | Q -0.034 ± 0.051 | T 0.057 ± 0.056 | P -0.013 ± 0.048
T59: H 0.035 ± 0.077 | R -0.002 ± 0.055 | Y -0.218 ± 0.21 | E 0.098 ± 0.14 | D -0.072 ± 0.17 | V -0.227 ± 0.12 | A 0.016 ± 0.074 | G -0.13 ± 0.082 | F -0.254 ± 0.14 | I -0.103 ± 0.089 | C -0.25 ± 0.18 | N -0.205 ± 0.16 | S 0.045 ± 0.064 | M -0.237 ± 0.13 | L -0.249 ± 0.068 | P -0.142 ± 0.083 | W -0.387 ± 0.12
A56: H -0.031 ± 0.11 | M -0.02 ± 0.055 | T -0.054 ± 0.05 | K -0.169 ± 0.057 | S -0.054 ± 0.047 | Y -0.136 ± 0.079 | P -0.185 ± 0.054 | G -0.057 ± 0.039 | W -0.134 ± 0.05 | C -0.02 ± 0.075 | V -0.128 ± 0.036 | N -0.209 ± 0.11 | D -0.273 ± 0.064 | F -0.265 ± 0.069 | R -0.12 ± 0.041 | E -0.08 ± 0.043
Y54: T 0.067 ± 0.062 | V -0.068 ± 0.045 | W -0.222 ± 0.063 | S 0.04 ± 0.052
C55: H -0.938 ± 0.18 | D -0.507 ± 0.14 | S -0.897 ± 0.075 | F -1.05 ± 0.21 | A -0.809 ± 0.066 | M -1.11 ± 0.11 | I -1.09 ± 0.28 | G -0.913 ± 0.06 | R -0.774 ± 0.05 | W -1.11 ± 0.1 | Y -0.913 ± 0.13 | N -0.615 ± 0.21 | L -1.09 ± 0.089 | P -0.891 ± 0.11 | V -1.08 ± 0.095 | E -0.765 ± 0.067 | Q -1.01 ± 0.13 | T -1.16 ± 0.11
C58: M -1.09 ± 0.13 | R -0.929 ± 0.061 | A -0.869 ± 0.07 | W -1.26 ± 0.12 | G -0.851 ± 0.059 | P -0.762 ± 0.13 | D -0.8 ± 0.093 | H -0.287 ± 0.075 | Y -1.08 ± 0.12 | I -1.39 ± 0.24 | S -1.1 ± 0.074 | T -0.918 ± 0.085 | F -1.11 ± 0.18 | E -0.906 ± 0.099 | N -1.05 ± 0.18 | V -1.04 ± 0.091

Variants of: B2
Test: as above
Settings: Homo sapiens

Abundance fitness of substitutions, site by site:
W1: S 0.121 ± 0.07 | C 0.094 ± 0.075 | R -0.182 ± 0.077 | N 0.251 ± 0.099 | D 0.445 ± 0.13 | V -0.005 ± 0.055 | G 0.131 ± 0.067 | K 0.249 ± 0.1 | E -0.138 ± 0.1 | F -0.106 ± 0.14 | T -0.286 ± 0.19 | M 0.253 ± 0.057 | A -0.014 ± 0.17 | Y 0.311 ± 0.084 | L -0.05 ± 0.064
K3: D -0.539 ± 0.097 | G -0.515 ± 0.051 | N -0.133 ± 0.052 | E -0.475 ± 0.061 | R -0.618 ± 0.055 | C -1.03 ± 0.12 | A -0.602 ± 0.066 | L -0.607 ± 0.061 | I -0.393 ± 0.09 | V -0.687 ± 0.06 | S -0.55 ± 0.057 | F -1.14 ± 0.16 | Y -0.529 ± 0.081 | H -0.42 ± 0.089 | Q -0.664 ± 0.095 | P -0.906 ± 0.11 | M -0.431 ± 0.073
D5: R -0.57 ± 0.043 | W -0.531 ± 0.055 | K -0.069 ± 0.056 | L -0.547 ± 0.047 | S -0.209 ± 0.039 | Q -0.708 ± 0.069 | A -0.21 ± 0.055 | M 0.058 ± 0.044 | H -0.426 ± 0.12 | G -0.388 ± 0.042 | C -0.17 ± 0.069 | P -0.537 ± 0.067 | E -0.134 ± 0.056 | T -0.178 ± 0.058 | I -0.341 ± 0.11 | V -0.313 ± 0.047 | N 0.004 ± 0.045
D4: G -0.228 ± 0.056 | H -0.192 ± 0.097 | V -0.351 ± 0.052 | K -0.068 ± 0.06 | E -0.156 ± 0.059 | S -0.158 ± 0.044 | A -0.466 ± 0.069 | N -0.018 ± 0.044 | T -0.27 ± 0.05 | F -0.234 ± 0.058 | R -0.22 ± 0.037 | L -0.298 ± 0.039 | C -0.971 ± 0.17 | I -0.241 ± 0.058 | P -0.494 ± 0.061 | Y -0.18 ± 0.064
L2: I -0.104 ± 0.1 | D -0.006 ± 0.093 | Q -0.023 ± 0.076 | Y 0.058 ± 0.057 | T -0.02 ± 0.066 | M -0.074 ± 0.065 | K 0.102 ± 0.071 | C -0.327 ± 0.069 | W -0.329 ± 0.066 | H -0.211 ± 0.095 | V -0.044 ± 0.064 | G -0.074 ± 0.12 | A 0.01 ± 0.077 | F -0.061 ± 0.043 | R -0.393 ± 0.07 | P -1.13 ± 0.17
